Laboratory results as given in PMC8971491, “Conformational plasticity of the HIV-1 gp41 immunodominant region is recognized by multiple non-neutralizing antibodies” (Communications Biology, 2022).

T1: 15-mer peptide corresponding to residues 594-608 of HIV-1 gp160 (HIV-1 Consensus Subtype C Env Peptide Set) (HIV-1 consensus subtype C (stand-in: …, UniProt P04578, strain))
T1 construct: 15-mer of the HIV-1 consensus subtype C Env peptide set, corresponding to residues 594-608 of HIV-1 gp160; also called single peptide that corresponds to residues 594-608 of HIV-1 gp160; NIH HIV-1 gp41 peptide; source: bought: NIH AIDS Reagent Program, HIV-1 Consensus Subtype C Env Peptide Set (cat. No. 9499)
T1 chain: GIWGCSGKLICTTAV

B1: Fab 3D6 (Fab, V domains shown)
VH: EVQLVESGGGLVQPGRSLRLSCAASGFTFNDYAMHWVRQAPGKGLEWVSGISWDSSSIGYADSVKGRFTISRDNAKNSLYLQMNSLRAEDMALYYCVKGRDYYDSGGYFTVAFDIWGQGTMVTVSS
VL: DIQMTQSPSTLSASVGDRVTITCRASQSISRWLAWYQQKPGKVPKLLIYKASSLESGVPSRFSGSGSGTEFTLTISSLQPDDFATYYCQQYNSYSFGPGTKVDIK
notes: immunoglobulin heavy chain variable region of 3D6; Ig gamma-1 chain constant region, fused after the variable region; as a Fab only part of the constant region is present; immunoglobulin light chain variable region of 3D6; Ig kappa chain constant region, fused after the variable region; Fab; residues numbered by Kabat convention; also called patient-derived near-germline antibody fragment; …
B2: Fab F240 (Fab, V domains shown)
VH: QVQLVQSGGGVVKPGASLRLACSASGFTFTDYYMSWIRQTPGKGLQWLAYITKDGSEKKYADSLQGRFAVSRDNANNLVFLQLNTVEDDDTGVYYCARDDGYYDRSGYYGVFDLWGQGIRVTVSS
VL: EFLLTQSPDSLAVTLGETATITCRSSRNILHSLNNKNYLAWYQQRPGQAPKLLVIWASMRVSGVADRFSGSGSGTDFALTISSLQPEDAAVYYCQHYYTTHRTFGQGTRVEIR
notes: immunoglobulin heavy chain variable region of F240; Ig gamma-1 chain constant region, fused after the variable region; as a Fab only part of the constant region is present; immunoglobulin light chain variable region of F240; Ig kappa chain constant region, fused after the variable region; Fab; residues numbered by Kabat convention; also called anti-gp41 Fab F240; source: HEK293T, transiently …

Target: T1, 15-mer peptide corresponding to …
Experiment: ELISA; 15-mer peptides adsorbed to microtiter plates at 10 ug/mL in 100 mM sodium bicarbonate pH 9.3 overnight at 4 C; Fab at 1 ug/mL in PBST-Milk, 1 hour at room temperature; goat anti-human HRP, absorbance at 450 nm
Details: both partners purified

Binder	binding result
B1	binds
B2	binds
